# Assay results published in patent publication US8461305B2, “L-fucose α1→6 specific lectin” (J-Oil Mills, Inc., priority 2008, dated 2013).
# Legend:
# glycoproteins = test: hemagglutinating inhibition test with glycoproteins (sugar binding specificity); assay type: cell-based
# Excerpt: The sugar binding specificity of lectin also can be confirmed by using erythrocytes that can be specifically agglutinated by the lectin to investigate the sugar type that may inhibit the agglutination of the erythrocytes and the concentration thereof.
# Various monosaccharides, oligosaccharides, and polysaccharides shown in Table 2 and glycoproteins shown in Table 3 were subjected to hemagglutinating inhibition test to evaluate PTL of Example 1 and the SRL of Example 2 with regard to the sugar binding specificity.
# On a 96 well U-bottom microtiter plate, double dilution series of 10 μl of monosaccharide, oligosaccharide, polysaccharide, and glycoprotein solutions were prepared. Then, lectin solution adjusted in advance to have titer 4 was added in an amount of 10 μl to the respective wells. Then, the plate was subjected to a still-standing at a room temperature for one hour for sensitization. Then, 10 μl of 4%-red blood cell suspension was added to the respective wells and the plate was further subjected to a still-standing at a room temperature for one hour. […] The lowest concentration showing the inhibition was assumed as the minimum inhibition concentration. The lower the minimum inhibition concentration is, the higher the specificity to lectin is.
# For comparison, the sugar binding specificity was evaluated using the following commercially-available lectins: Comparison Example 1: AAL (SEIKAGAKU BIOBUSINESS CORPORATION—J-OIL MILLS, Inc.), Comparison Example 2: AOL (TOKYO CHEMICAL INDUSTRY CO., LTD.—Gekkeikan Sake Company, Ltd.), Comparison Example 3: LCA (SEIKAGAKU BIOBUSINESS CORPORATION—J-OIL MILLS, Inc.), and Comparison Example 4: PSA (SEIKAGAKU BIOBUSINESS CORPORATION—J-OIL MILLS, Inc.).
# [1] = frontal affinity chromatography (FAC), association constant to PA sugar chains having α1→6 L-fucose; assay type: binding; conditions: 25 degrees C.
# Procedure: The following section will describe a method of calculating an association constant by frontal affinity chromatography (FAC). This method is based on the following principle. […] Then, the elution front end (front) is observed immediately. When there is an affinity with lectin, the elution of the sugar chain is delayed.
# The preparation of a lectin column used in the apparatus is performed in the method as described below. 1. Purified lectin is dissolved in 0.1 to 0.2M of NaHCO3 buffer solution (pH 8.3 to 8.5). 2. The lectin is immobilized, via a lectin primary amino group, a carrier such as NHS activated sepharose. 3. Then, the lectin is blocked by Tris buffer solution including primary amine or ethanolamine for example. 4. Lectin-sepharose is suspended in 10 mM Tris buffer, including 0.8% of NaCl (pH 7.4, TBS). Then, lectin immobilized resin is filled in a miniature column (φ2 mm×10 mm, 31.4 μl). 5. The miniature column in which the lectin immobilized resin is filled is protected by a holder and the lectin column is connected to an FAC automatic analysis apparatus (FAC-1, SHIMADZU CORPORATION).
# Then, the elution of the PA sugar chain from the column is detected by a fluorescence detector (excitation wavelength/fluorescence wavelength: 310 nm/380 nm).
# Based on the detection data, by using the elution front end (Vo) of the sugar chain (PA rhamnose) not interacting with lectin as a reference, the delay (V−Vo) of the elution front end (V) of a sugar chain interacting with lectin is calculated as an interaction strength. Then, based on the following FAC criteria expressions, the association constant (Ka) between the sugar chain and lectin is calculated based on V−Vo and Bt. If the interaction strength (V−Vo value) and the association constant are higher, a higher affinity is caused between lectin and an L-fucose α1→6 sugar chain.
# [In the formula, A means substance used for the elution, Ao means the initial concentration of the substance A, B means a immobilized ligand, V means the elution volume, Vo means the elution front end volume of the substance not interacting with the immobilized ligand B at all, Bt means an effective ligand amount, Kd means a dissociation constant (an inverse of the association constant)].
# Pyridylaminated (PA) sugar chains shown in FIG. 1 and FIG. 2 were used to frontal affinity chromatography (FAC) analysis. PA sugars were purchased from TAKARA BIO INC., SEIKAGAKU BIOBUSINESS CORPORATION, and Masuda Chemical Industries co., LTD. PA sugar were also obtained by pyridylaminating, by GlycoTAG®(TAKARA BIO INC.), an unlabeled sugar chain or a sugar chain obtained by subjecting a sugar chain to enzyme digestion for example.
# Lectin was dissolved in 0.2 M NaHCO3 buffer solution (pH 8.3) including 0.5 M NaCl and coupled to the NHS-activated sepharose (GE Healthcare Bioscience) by following the manufacturer's instructions. Then, lectin immobilized sepharose was suspended in 10 mM Tris buffer (pH 7.4, TBS) including […] and the resultant matter was filled in a miniature column (φ2 mm×10 mm, 31.4 μl).
# Frontal affinity chromatography was performed using FAC automatic analysis apparatus (FAC-1, SHIMADZU CORPORATION). In particular, the above-prepared lectin column was inserted to a stainless steel holder and the holder was connected to FAC-1 apparatus. The flow rate and the column temperature were maintained at 0.125 ml/min and 25 degrees C., respectively. After the miniature column was equilibrated by the TBS, an excessive volume (0.5 ml to 4 ml) of a PA sugar chain (3.75 nM or 7.5 nM) was continuously inputted to the column using an automatic sampling apparatus.
# The fluorescent strength of the eluate of the PA sugar (excitation wavelength of 310 nm and fluorescence wavelength of 380 nm) was monitored to measure the interaction strength [a difference of the front end eluate to the standard oligosaccharide (PA rhamnose): V−V0]. […]
# [2] = inhibitor: Bovine blood serum albumin
# [3] = inhibitor: Human immune globulin A
# [4] = inhibitor: Human immune globulin G
# [5] = inhibitor: α1-acidic glycoprotein
Molecule,minimum inhibition concentration of hemagglutination (glycoproteins; inhibitor: Asialofetuin),minimum inhibition concentration of hemagglutination (glycoproteins; inhibitor: Asialomucin (pig)),minimum inhibition concentration of hemagglutination (glycoproteins; [2]),minimum inhibition concentration of hemagglutination (glycoproteins; inhibitor: Casein),minimum inhibition concentration of hemagglutination (glycoproteins; inhibitor: Fetuin),minimum inhibition concentration of hemagglutination (glycoproteins; [3]),minimum inhibition concentration of hemagglutination (glycoproteins; [4]),minimum inhibition concentration of hemagglutination (glycoproteins; inhibitor: Lactoferrin),minimum inhibition concentration of hemagglutination (glycoproteins; inhibitor: Mucin (bovine)),minimum inhibition concentration of hemagglutination (glycoproteins; inhibitor: Mucin (pig)),minimum inhibition concentration of hemagglutination (glycoproteins; inhibitor: Ribonuclease),minimum inhibition concentration of hemagglutination (glycoproteins; inhibitor: Thyroglobulin),minimum inhibition concentration of hemagglutination (glycoproteins; inhibitor: Transferrin),minimum inhibition concentration of hemagglutination (glycoproteins; [5]),association constant Ka ([1]; Sugar chain No. 015),association constant Ka ([1]; Sugar chain No. 201),association constant Ka ([1]; Sugar chain No. 202),association constant Ka ([1]; Sugar chain No. 203),association constant Ka ([1]; Sugar chain No. 401),association constant Ka ([1]; Sugar chain No. 402),further results
Aleuria aurantia lectin (protein) PTEFLYTSKIAAISWAATGGRQQRVYFQDLNGKIREAQRGGDNPWTGGSSQNVIGEAKLFSPLAAVTWKSAQGIQIRVYCVNKDNILSEFVYDGSKWITGQLGSVGVKVGSNSKLAALQWGGSESAPPNIRVYYQKSNGSGSSIHEYVWSGKWTAGASFGSTVPGTGIGATAIGPGRLRIYYQATDNKIREHCWDSNSWYVGGFSASASAGVSIAAISWGSTPNIRVYWQKGREELYEAAYGGSWNTPGQIKDASRPTPSLPDTFIAANSSGNIDISVFFQASGVSLQQWQWISGKGWSIGAVVPTGTPAGW,>250 μl/ml,31.3 μl/ml,>250 μl/ml,>250 μl/ml,>250 μl/ml,>250 μl/ml,>250 μl/ml,>250 μl/ml,>250 μl/ml,15.6 μl/ml,>250 μl/ml,125 μl/ml,>250 μl/ml,>250 μl/ml,91000 M⁻¹,51000 M⁻¹,54000 M⁻¹,66000 M⁻¹,55000 M⁻¹,11000 M⁻¹,association constant Ka ([1]; Sugar chain No. 403): 52000 M⁻¹; association constant Ka ([1]; Sugar chain No. 404): 65000 M⁻¹; association constant Ka ([1]; Sugar chain No. 405): 56000 M⁻¹; association constant Ka ([1]; Sugar chain No. 406): 47000 M⁻¹; association constant Ka ([1]; Sugar chain No. 407): 45000 M⁻¹; association constant Ka ([1]; Sugar chain No. 410): 38000 M⁻¹; association constant Ka ([1]; Sugar chain No. 413): 32000 M⁻¹; association constant Ka ([1]; Sugar chain No. 418): <1000 M⁻¹; association constant Ka ([1]; Sugar chain No. 601): 61000 M⁻¹; association constant Ka ([1]; Sugar chain No. 602): 52000 M⁻¹
Lens culinaris agglutinin (protein) chain 1: TETTSFSITKFSPDQKNLIFQGDGYTTKGKLTLTKAVKSTVGRALYSTPIHIWDRDTGNVANFVTSFTFVIDAPSSYNVADEFTFFIAPVDTKPQTGGGYLGVFNSKEYDKTSQTVAVEFDTFYNAAWDPSNKERHIGIDVNSIKSVNTKSWNLQNGERANVVIAFNAATNVLTVTLTYP chain 2: VTSYTLNEVVPLKDVVPEWVRIGFSATTGAEFAAHEVHSWSFHSELGGTSSS,250 μl/ml,>250 μl/ml,>250 μl/ml,>250 μl/ml,>250 μl/ml,>250 μl/ml,>250 μl/ml,>250 μl/ml,>250 μl/ml,>250 μl/ml,>250 μl/ml,62.5 μl/ml,>250 μl/ml,>250 μl/ml,56000 M⁻¹,500000 M⁻¹,110000 M⁻¹,73000 M⁻¹,42000 M⁻¹,59000 M⁻¹,association constant Ka ([1]; Sugar chain No. 403): 99000 M⁻¹; association constant Ka ([1]; Sugar chain No. 404): 58000 M⁻¹; association constant Ka ([1]; Sugar chain No. 405): 47000 M⁻¹; association constant Ka ([1]; Sugar chain No. 406): 18000 M⁻¹; association constant Ka ([1]; Sugar chain No. 407): 1000 M⁻¹; association constant Ka ([1]; Sugar chain No. 410): <1000 M⁻¹; association constant Ka ([1]; Sugar chain No. 413): <1000 M⁻¹; association constant Ka ([1]; Sugar chain No. 418): <1000 M⁻¹; association constant Ka ([1]; Sugar chain No. 601): 30000 M⁻¹; association constant Ka ([1]; Sugar chain No. 602): 24000 M⁻¹
